Laboratory results reported in article PMC11245600, “Therapeutic potential of the secreted Kazal-type serine protease inhibitor SPINK4 in colitis” (Nature Communications, 2024).

Target: T1, Fc-tagged extracellular section of EGFR (rEGFR) (human, UniProt P00533 25-645)
T1 construct: EGFR, extracellular section, human-derived; Bought protein; also called rEGFR (extracellular part); recombinant extracellular domain of EGFR; source: bought: Sino Biological
Test: pull-down; 200 ng/mL rSPINK4-His and 1000 ng/mL Fc-tagged extracellular EGFR in 1 mL PBS with protease inhibitors, 4 °C overnight; anti-His or anti-EGFR magnetic beads, IgG control; Western blot
Conditions: both partners purified

binding result: binds
B1: human-derived recombinant SPINK4 protein, His-tagged (rSPINK4-His) (natural protein, UniProt O60575 27-86, looked up)
chain: GKLPFSRMPICEHMVESPTCSQMSNLVCGTDGLTYTNECQLCLARIKTKQDIQIMKDGKC
notes: Bought recombinant protein
